{"source": "FireProtDB (doi:10.1093/protein/13.4.299)", "proteins": {"B1": {"name": "Lysozyme C wild type, P61626 (protein)", "chain": "MKALIVLGLVLLSVTVQGKVFERCELARTLKRLGMDGYRGISLANWMCLAKWESGYNTRATNYNAGDRSTDYGIFQINSRYWCNDGKTPGAVNACHLSCSALLQDNIADAVACAKRVVRDPQGIRAWVAWRNRCQNRDVRQYVQGCGV"}}, "details": "Homo sapiens, DSC, reversible: yes, whole UniProt chain shown; for Tm / heat capacity change of unfolding / unfolding enthalpy (calorimetric) / unfolding enthalpy (van 't Hoff): Thermal; for denaturant m value / denaturant midpoint (higher = more stable) / unfolding free energy: 25 °C, GdnHCl", "note": "Values joined by “and” are separate entries in the source; they are usually repeats but may differ in a detail not shown here. Identical values can stand only once."}
{"protein": "B1", "values": [{"measurement": "Tm", "setting": "pH 2.63, glycine-HCl 50 mM", "value": 55.6, "unit": "°C"}, {"measurement": "heat capacity change of unfolding", "setting": "pH 2.63, glycine-HCl 50 mM", "value": 1.94, "unit": "kcal/mol/K"}, {"measurement": "unfolding enthalpy (calorimetric)", "setting": "pH 2.63, glycine-HCl 50 mM", "value": 90.6, "unit": "kcal/mol"}, {"measurement": "unfolding enthalpy (van 't Hoff)", "setting": "pH 2.63, glycine-HCl 50 mM", "value": 96.3, "unit": "kcal/mol"}, {"measurement": "Tm", "setting": "pH 2.64, glycine-HCl 50 mM", "value": 56.4, "unit": "°C"}, {"measurement": "heat capacity change of unfolding", "setting": "pH 2.64, glycine-HCl 50 mM", "value": 1.63, "unit": "kcal/mol/K"}, {"measurement": "unfolding enthalpy (calorimetric)", "setting": "pH 2.64, glycine-HCl 50 mM", "value": 95.1, "unit": "kcal/mol"}, {"measurement": "unfolding enthalpy (van 't Hoff)", "setting": "pH 2.64, glycine-HCl 50 mM", "value": 95.6, "unit": "kcal/mol"}, {"measurement": "Tm", "setting": "pH 2.68, glycine-HCl 50 mM", "value": 56.8, "unit": "°C"}, {"measurement": "heat capacity change of unfolding", "setting": "pH 2.68, glycine-HCl 50 mM", "value": 1.94, "unit": "kcal/mol/K"}, {"measurement": "unfolding enthalpy (calorimetric)", "setting": "pH 2.68, glycine-HCl 50 mM", "value": 92, "unit": "kcal/mol"}, {"measurement": "unfolding enthalpy (van 't Hoff)", "setting": "pH 2.68, glycine-HCl 50 mM", "value": 96.3, "unit": "kcal/mol"}, {"measurement": "Tm", "setting": "pH 2.75, glycine-HCl 50 mM", "value": 58.2, "unit": "°C"}, {"measurement": "heat capacity change of unfolding", "setting": "pH 2.75, glycine-HCl 50 mM", "value": 1.77, "unit": "kcal/mol/K"}, {"measurement": "unfolding enthalpy (calorimetric)", "setting": "pH 2.75, glycine-HCl 50 mM", "value": 97.5, "unit": "kcal/mol"}, {"measurement": "unfolding enthalpy (van 't Hoff)", "setting": "pH 2.75, glycine-HCl 50 mM", "value": 99, "unit": "kcal/mol"}, {"measurement": "Tm", "setting": "pH 2.78, glycine-HCl 50 mM", "value": 59, "unit": "°C"}, {"measurement": "heat capacity change of unfolding", "setting": "pH 2.78, glycine-HCl 50 mM", "value": 1.31, "unit": "kcal/mol/K"}, {"measurement": "unfolding enthalpy (calorimetric)", "setting": "pH 2.78, glycine-HCl 50 mM", "value": 98, "unit": "kcal/mol"}, {"measurement": "unfolding enthalpy (van 't Hoff)", "setting": "pH 2.78, glycine-HCl 50 mM", "value": 101, "unit": "kcal/mol"}, {"measurement": "Tm", "setting": "pH 2.84, glycine-HCl 50 mM", "value": 60.3, "unit": "°C"}, {"measurement": "heat capacity change of unfolding", "setting": "pH 2.84, glycine-HCl 50 mM", "value": 1.67, "unit": "kcal/mol/K"}, {"measurement": "unfolding enthalpy (calorimetric)", "setting": "pH 2.84, glycine-HCl 50 mM", "value": 98.5, "unit": "kcal/mol"}, {"measurement": "unfolding enthalpy (van 't Hoff)", "setting": "pH 2.84, glycine-HCl 50 mM", "value": 103, "unit": "kcal/mol"}, {"measurement": "Tm", "setting": "pH 2.87, glycine-HCl 50 mM", "value": 60.5, "unit": "°C"}, {"measurement": "heat capacity change of unfolding", "setting": "pH 2.87, glycine-HCl 50 mM", "value": 1.7, "unit": "kcal/mol/K"}, {"measurement": "unfolding enthalpy (calorimetric)", "setting": "pH 2.87, glycine-HCl 50 mM", "value": 99, "unit": "kcal/mol"}, {"measurement": "unfolding enthalpy (van 't Hoff)", "setting": "pH 2.87, glycine-HCl 50 mM", "value": 99, "unit": "kcal/mol"}, {"measurement": "Tm", "setting": "pH 2.93, glycine-HCl 50 mM", "value": 62.5, "unit": "°C"}, {"measurement": "heat capacity change of unfolding", "setting": "pH 2.93, glycine-HCl 50 mM", "value": 1.46, "unit": "kcal/mol/K"}, {"measurement": "unfolding enthalpy (calorimetric)", "setting": "pH 2.93, glycine-HCl 50 mM", "value": 102, "unit": "kcal/mol"}, {"measurement": "unfolding enthalpy (van 't Hoff)", "setting": "pH 2.93, glycine-HCl 50 mM", "value": 102, "unit": "kcal/mol"}, {"measurement": "denaturant m value", "setting": "pH 3, glycine-HCl 50 mM", "value": "3.23 kcal/mol/M and 3.01 kcal/mol/M"}, {"measurement": "denaturant midpoint (higher = more stable)", "setting": "pH 3, glycine-HCl 50 mM", "value": "2.9 M and 2.1 M"}, {"measurement": "unfolding free energy", "setting": "pH 3, glycine-HCl 50 mM", "value": "9.49 kcal/mol and 6.19 kcal/mol"}, {"measurement": "denaturant m value", "setting": "pH 4, glycine-HCl 50 mM", "value": "3.37 kcal/mol/M and 2.96 kcal/mol/M"}, {"measurement": "denaturant midpoint (higher = more stable)", "setting": "pH 4, glycine-HCl 50 mM", "value": "3.8 M and 2.8 M"}, {"measurement": "unfolding free energy", "setting": "pH 4, glycine-HCl 50 mM", "value": "12.9 kcal/mol and 8.25 kcal/mol"}, {"measurement": "denaturant m value", "setting": "pH 7, Sodium phosphate 50 mM", "value": 3.01, "unit": "kcal/mol/M"}, {"measurement": "denaturant midpoint (higher = more stable)", "setting": "pH 7, Sodium phosphate 50 mM", "value": 4, "unit": "M"}, {"measurement": "unfolding free energy", "setting": "pH 7, Sodium phosphate 50 mM", "value": 12.1, "unit": "kcal/mol"}]}
